Results reported in US20240077502.
Residue numbers refer to the chain shown, from its start. Names and notes keep the numbering of the source.

Experiments:
Abz-LPESGK(Dnp)-CONH2 = biological target: T1, Abz-LPESGK(Dnp)-CONH2
T1 chain: LPESGK

[1] = biological target: T2, LPESG substrate (flow cytometry panel)
T2 chain: LPESG

Btn-LMVGG = biological target: T3, Btn-LMVGG
T3 chain: GLMVGGV

[2] = biological target: T4, endogenous fetuin A in human plasma, P02765
T4 chain: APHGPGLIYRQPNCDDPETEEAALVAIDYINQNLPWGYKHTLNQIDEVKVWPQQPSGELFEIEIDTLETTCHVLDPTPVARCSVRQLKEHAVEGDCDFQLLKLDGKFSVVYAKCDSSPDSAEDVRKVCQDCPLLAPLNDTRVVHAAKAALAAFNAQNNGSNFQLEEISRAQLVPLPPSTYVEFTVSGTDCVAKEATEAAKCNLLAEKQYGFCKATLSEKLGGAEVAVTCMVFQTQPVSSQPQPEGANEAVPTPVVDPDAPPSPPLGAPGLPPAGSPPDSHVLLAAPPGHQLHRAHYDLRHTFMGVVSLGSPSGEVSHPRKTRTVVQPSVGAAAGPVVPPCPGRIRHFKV

[3] = biological target: T5, LPPAG substrate (flow cytometry panel)
T5 chain: LPPAG

Abz-LMVGGK(Dnp)-CONH2 = biological target: T6, Abz-LMVGGK(Dnp)-CONH2
T6 chain: LMVGGK

purified fetuin A = biological target: T7, purified fetuin A
T7 sequence (P02765 19-300, species assumed, looked up): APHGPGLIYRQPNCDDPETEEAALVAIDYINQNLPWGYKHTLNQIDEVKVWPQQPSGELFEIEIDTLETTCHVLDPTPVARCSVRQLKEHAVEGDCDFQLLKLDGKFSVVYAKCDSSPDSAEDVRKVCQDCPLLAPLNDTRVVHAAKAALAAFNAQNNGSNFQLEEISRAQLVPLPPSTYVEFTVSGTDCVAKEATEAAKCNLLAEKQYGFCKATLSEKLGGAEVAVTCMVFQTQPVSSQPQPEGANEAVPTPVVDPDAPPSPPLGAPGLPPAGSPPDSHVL
T7 sequence (P02765 341-367, species assumed, looked up): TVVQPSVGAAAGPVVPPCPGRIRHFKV

B1: SrtAβ (protein)
chain: MKKWTNRLMTIAGVVLILVAAYLFAKPHIDNYLHDKDKDEKIEQYDKNVKEQASKDKKQQAKPQIPKDKSKVAGYLEIPDADIKEPVYPGPATREQLDRGVCFVDEDESLDDQNISIIGHTALLRPHYQFTNLRAAKLDSIVYFTVGNETRRYKITSICNVRPTAVEVLDEHEGKDRQLTLATCDDYNYETGVWESSKIFVATEVR
Abz-LPESGK(Dnp)-CONH2
  kinetic parameters (HPLC assay): SrtAβ activity on LPESG [SEQ ID NO: 4] was too low to establish accurate kinetic parameters
[1]
  fold change of activity against 4S.6 (flow cytometry, yeast display): 53-fold reduced activity on LPESG
Btn-LMVGG
  change in substrate preference against 4S.6 (flow cytometry): 1,470-fold change in preference to favor LMVGG [SEQ ID NO: 3] over LPESG [SEQ ID NO: 4]
  fold change of activity against 4S.6 (flow cytometry, yeast display): 28-fold increased activity on LMVGG
  substrate preference, LMVGG over LPESG (flow cytometry): 30-fold preference for LMVGG [SEQ ID NO: 3] over LPESG [SEQ ID NO: 4]
Aβ43, P05067
Sequence of Aβ43, P05067 (P05067 whole entry, looked up): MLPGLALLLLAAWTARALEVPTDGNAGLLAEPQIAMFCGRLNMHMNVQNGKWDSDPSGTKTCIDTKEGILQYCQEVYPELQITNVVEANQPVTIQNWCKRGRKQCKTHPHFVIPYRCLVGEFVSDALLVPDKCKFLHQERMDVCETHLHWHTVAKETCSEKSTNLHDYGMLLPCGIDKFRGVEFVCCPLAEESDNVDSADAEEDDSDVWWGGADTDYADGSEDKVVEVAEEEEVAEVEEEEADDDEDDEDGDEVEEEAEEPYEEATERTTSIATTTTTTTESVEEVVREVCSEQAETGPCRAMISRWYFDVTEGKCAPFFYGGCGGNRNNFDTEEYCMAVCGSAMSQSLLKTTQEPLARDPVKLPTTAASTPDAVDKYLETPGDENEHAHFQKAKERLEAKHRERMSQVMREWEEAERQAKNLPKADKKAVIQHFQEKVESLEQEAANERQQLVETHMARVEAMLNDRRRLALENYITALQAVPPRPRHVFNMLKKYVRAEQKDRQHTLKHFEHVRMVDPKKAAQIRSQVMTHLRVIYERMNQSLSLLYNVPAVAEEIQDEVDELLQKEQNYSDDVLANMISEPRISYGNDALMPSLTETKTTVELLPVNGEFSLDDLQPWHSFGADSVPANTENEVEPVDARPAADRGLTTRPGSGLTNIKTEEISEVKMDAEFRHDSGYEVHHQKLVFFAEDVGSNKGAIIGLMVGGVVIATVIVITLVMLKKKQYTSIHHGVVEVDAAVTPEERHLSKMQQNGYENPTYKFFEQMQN
  modification by the sortase: SrtAβ has been shown to modify Aβ40, Aβ42, and Aβ43
AβM1-42, P05067
Sequence of AβM1-42, P05067 (P05067 whole entry, looked up, tested part not stated): as the sequence (P05067 whole entry, looked up) above
  conversion to transpeptidation product with GGGRR (HPLC): 64% of the starting AβM1-42 was converted to the desired product
[2]
  activity on fetuin A in human plasma (streptavidin pulldown, Coomassie): a sortase variant with greatly reduced activity on fetuin A relative to the starting sortase 4S.6 was generated
  labeling with GGGK(Btn) in human plasma, Western blot: 4S.6, but not SrtAβ, labels fetuin A
Aβ42, P05067
Sequence of Aβ42, P05067 (P05067 whole entry, looked up): as above
  conversion to transpeptidation product with 200 µM GGGRR (HPLC): as opposed to 50% when reacted with 200 µM GGGRR
  conversion to transpeptidation product with 1 mM GGGRR (HPLC): 64% of the Aβ42 was converted to the expected product when reacted with 1 mM GGGRR
  modification by the sortase: SrtAβ has been shown to modify Aβ40, Aβ42, and Aβ43
AβM1-40, P05067
Sequence of AβM1-40, P05067 (P05067 whole entry, looked up, tested part not stated): as the sequence (P05067 whole entry, looked up) above
  conversion to transpeptidation product with GGGK(Btn) (HPLC): 82% of the starting AβM1-40 was converted to the desired product
[3]
  fold change of activity against 4S.6 (flow cytometry, yeast display): 11-fold reduced activity on LPPAG
Aβ40, P05067
Sequence of Aβ40, P05067 (P05067 whole entry, looked up): as above
  biotinylated product formed in human plasma (streptavidin capture ELISA): 1.5 µM SrtAβ generating 2.3 µM of biotinylated product from 5 µM Aβ40 in two hours
  lowest Aβ40 concentration at which labeling was observed in human plasma (m266 capture ELISA): labeling of Aβ40 spiked into human plasma at concentrations as low as 5 nM was observed
  modification by the sortase: SrtAβ has been shown to modify Aβ40, Aβ42, and Aβ43
  yield of transpeptidation products with glycine nucleophiles (HPLC): the expected transpeptidation products were observed in yields of 80-88%
Abz-LMVGGK(Dnp)-CONH2
  KM: KM=128 µM (95% CI=87 to 198 µM)
  kcat: kcat=0.018 s-1 (95% CI=0.015 to 0.023 s-1)

B2: SrtAβ reversion mutant A182V (protein)
chain: B1 chain with A182V
Btn-LMVGG
  reduction of activity against SrtAβ (flow cytometry, yeast display): 2 fold

B3: SrtAβ reversion mutant R177K (protein)
chain: B1 chain with R177K
Btn-LMVGG
  reduction of activity against SrtAβ (flow cytometry, yeast display): 2 fold

B4: SrtAβ reversion mutant C159R (protein)
chain: B1 chain with C159R
Btn-LMVGG
  reduction of activity against SrtAβ (flow cytometry, yeast display): 2 fold

B5: SrtAβ reversion mutant R134G (protein)
chain: B1 chain with R134G
Btn-LMVGG
  reduction of activity against SrtAβ (flow cytometry, yeast display): 2 fold

B6: SrtA 8.5-H3 (protein)
chain: MKKWTNRLMTIAGVVLILVAAYLFAKPHIDNYLHDKDKDEKIEQYDKNVKEQASKDKKQQARPQIPKDKSKVAGYIEIPDADIKEPVYPGPATREQLDRGVSFVEEDESLDDQNISIIGHTALLRPNYQFTNLRAAKIGSMVYFKVGNETRKYKMTSIRNVKPTAVEVLDEQEGKDRQLTLATCDDYNIETGVWESSKIFVATEVK
Purified fetuin A
  labeling with GGGK(Btn), Western blot: Labeled fetuin A is detected by Western blot
[2]
  labeling with GGGK(Btn) in human plasma, Western blot: Western blot of overnight reaction of SrtA 8.5-H3 (50 µM) and GGGK[SEQ ID NO: 6](Btn) (1 mM) in human plasma shows labeling of endogenous fetuin A
Abz-LMVGGK(Dnp)-CONH2
  KM: KM=52 µM (95% CI=29 to 103 µM)
  kcat: kcat=0.012 s-1 (95% CI=0.009 to 0.017 s-1)
  percent of substrate converted to product (HPLC assay for SrtA activity): converting 10% of M substrate to product in two hours

B7: minimal mutant (4S.6 with S118I, G134R, R159C, K177R, V182A, and R197S mutations) (protein)
chain: QAKPQIPKDKSKVAGYIEIPDADIKEPVYPGPATREQLDRGVSFVEENESLDDQNISIIGHTAIDRPNYQFTNLRAAKKGSMVYFKVGNETRKYKMTSICNVKPTAVEVLDEQKGKDRQLTLATCDDYNVETGVWETSKIFVATEVK
Btn-LMVGG
  fold change of activity against 4S.6 (flow cytometry): 4-fold improvement in LMVGG [SEQ ID NO: 3] activity relative to 4S.6
  fold change of activity against SrtAβ (flow cytometry): 23-fold lower activity than SrtAβ

B8: round 7 consensus sequence (R7) reversion mutant L123I (protein)
chain: B7 chain with R35Y, D65L, K79I, C100R, K114E, R118K, V130F, T137S
Btn-LMVGG
  fold change of activity against the round 7 consensus sequence (flow cytometry, 100-1000 nM Btn-LMVGG): L123I (1.5-fold)

B9: round 7 consensus sequence (R7) reversion mutant L124D (protein)
chain: B7 chain with R35Y, I64L, K79I, C100R, K114E, R118K, V130F, T137S
Btn-LMVGG
  fold change of activity against the round 7 consensus sequence (flow cytometry, 100-1000 nM Btn-LMVGG): L124D (1.1-fold)

B10: sortase 4S.6 (protein)
chain: B7 chain with I59S, R75G, C100R, R118K, A123V, S138R
Abz-LPESGK(Dnp)-CONH2
  KM: KM=610 µM (95% CI=90 to 5550 µM)
  kcat: kcat=0.36 s-1 (95% CI=0.22 to 0.96 s-1)
[1]
  substrate preference, LPESG over LMVGG (flow cytometry): 49-fold preference for LPESG [SEQ ID NO: 4] over LMVGG [SEQ ID NO: 3]
[2]
  labeling with GGGK(Btn) in human plasma, Western blot: 4S.6, but not SrtAβ, labels fetuin A
Abz-LMVGGK(Dnp)-CONH2
  kinetic parameters: 4S.6 activity on LMVGG [SEQ ID NO: 3] was not detectable

B11: round 7 consensus sequence (R7) reversion mutant Y94R (protein)
chain: B7 chain with I64L, D65L, K79I, C100R, K114E, R118K, V130F, T137S
Btn-LMVGG
  fold change of activity against the round 7 consensus sequence (flow cytometry, 100-1000 nM Btn-LMVGG): Reversion mutant Y94R showed a 2.3-fold improvement on average across substrate concentrations compared to the round 7 consensus sequence
